This series deals with MS2 coat protein. Nature of the series: apparent KD of MS2 coat protein; designed switch direction (-1 OFF switch, 1 ON switch): 1; higher = weaker reporter binding. The method, boiled down: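 Designed RNA switches with common flanks were made on Illumina chips by stalled E. coli RNA polymerase. Titration with SNAP-549-labelled MS2 coat protein doubled from 0.7 or 1.5 nM up to 3 µM. Apparent KD is each design's median over clusters after curve-fitting normalised fluorescence.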

The mark [1] stands for this setting: input ligand: microRNA oligo, concentration not stated.
The mark [2] stands for this setting: Eterna round: R95, input ligand: FMN 200 uM.
Setting [3] is: Eterna round: R95, input ligand: microRNA oligo, concentration not stated.
The mark [4] stands for this setting: Eterna round: R95, input ligand: none.

Consider “GUUACAUGAGGAUCACCCAUGUAUGUGUGGGAGUAAGUGUCUUAGGAUAUCUGUUAUUUAAUUUCAGAGAAGGAAGAUUGUUGU [JMF's solution 48] (Eterna round: R96, puzzle: Same State NG 3)”, for which the “apparent KD of MS2 coat protein” value is 125 nM (input ligand: FMN 200 uM), 91.2 nM under setting [1] and 105 nM (input ligand: none).

With “UGACACACGGCAGGAUAUGCUUAGCAAAGCUAAGCAGAAGGGCCUCAUGUCGUGGAAACGUGACAUGAGGAUCACCCAUGUCGC [Omei SS(NG)1 Cv4] (Eterna round: R96, puzzle: Same State NG 1)”, the “apparent KD of MS2 coat protein” value by setting is: (input ligand: FMN 200 uM) 122 nM; under setting [1], 6.01 nM; (input ligand: none) 17.7 nM.

As to “AAACCACAUGAGGAUCACCCAUGUCAAGAGAGACUAGGAUAUCUGAAUUAAUUAAAUUAAGGAGAAGGAGUGAAAA [71%, Same state of confusion2, 3] (Eterna round: R96, puzzle: Same State 1)”, the “apparent KD of MS2 coat protein” value is, setting by setting: (input ligand: FMN 200 uM) 57.4 nM; under setting [1], 100 nM; (input ligand: none) 131 nM.

For the sequence “CGCCGACAUGAGGAUCACCCAUGUCACAACUGGUCAGGAUAUGGUAUGAUUUGGCUAUUGCCAGAAGGGACCUCAG [JR_SS001_Sub712] (Eterna round: R96, puzzle: Same State 1)”, the “apparent KD of MS2 coat protein” value reads like this: (input ligand: FMN 200 uM) 22.4 nM; under setting [1], 28.8 nM; (input ligand: none) 30.6 nM.

On to “AGGGAGGAAGCUGAGGAUAUCGUAAGGAGGACAUGAGGAUCACCCAUGUGUGUGGAAUUGGAGGACGAGAAGGCAGAGGAGUGGG [JR_SS2_Sub054] (puzzle: Same State 2)”, for which the “apparent KD of MS2 coat protein” value under setting [2] was 32.9 nM, the “apparent KD of MS2 coat protein” value under setting [3] came out at 27.1 nM and the “apparent KD of MS2 coat protein” value under setting [4] amounted to 28.9 nM.

Consider “UAUGCACAUGAGGAUCACCCAUGUGGUAAGACCACAGGAUAUCACCUCGGACGUGCGAUGUGAGAAGGGUGAUGGU [Same State 1 - Mod of Vinnie Anrelari v.3] (puzzle: Same State 1)”, for which the “apparent KD of MS2 coat protein” value was determined as 491 nM under setting [2], 289 nM under setting [3] and 379 nM under setting [4].

On to “UUAAUGAUGAAAGGAUAUACAUGAGGAAUUCUCGUAGAAGGUUCAUGACAUGAGGAUCACCCAUGUAUCGCUCAGAAGAGCGUA [Mat - Same State NG 1 - JL mod - D29] (Eterna round: R96, puzzle: Same State NG 1)”, for which the “apparent KD of MS2 coat protein” value runs as follows: (input ligand: FMN 200 uM) 47.4 nM; under setting [1], 36 nM; (input ligand: none) 85.4 nM.

With “AGAAACAAAGGCUGAAAUAAUACAUGAGGAUCACCCAUGUCACAGGAUAUCCAGAUAAUAUUCGAGGAGAAGGGUGCAGCCAAC [Esanusdiat] (Eterna round: R96, puzzle: Same State NG 3)”, the “apparent KD of MS2 coat protein” value was 19.1 nM (input ligand: FMN 200 uM), 59.6 nM under setting [1] and 79.7 nM (input ligand: none).

As for “UUGUUUAGUAAUUAACAUGAGGAUCACCCAUGUCUUGGCUCAGAGGAUAUGCAUGUUUGAUUGUAGCAGAAGGCUGAUUGUUGU [JR_SSNG3_Sub030] (Eterna round: R96, puzzle: Same State NG 3)”, the “apparent KD of MS2 coat protein” value (input ligand: FMN 200 uM) stood at 65.1 nM, the “apparent KD of MS2 coat protein” value under setting [1] amounted to 148 nM and the “apparent KD of MS2 coat protein” value (input ligand: none) came out at 107 nM.

On to “AUAAGGCAAGCUUUUUUCUCGUAGUGUAAACAUGAGGAUCACCCAUGUGCCCACCCUAGAUCUUUGGAUCGCAGAAC [Atrageus] (puzzle: Sensor for hsa-mir-208a)”, for which the “apparent KD of MS2 coat protein” value was 22.8 nM under setting [2], 16.8 nM under setting [3] and 26.8 nM under setting [4].

In the case of “UUGUUUCACGUAGGAUAUCGACCUACAUGAGGAUCACCCAUGUUUUUGAAUAGAUUUUUUUGUUACGAGAAGGACGUUAUGUAU [JR_SSNG2_Sub065] (Eterna round: R96, puzzle: Same State NG 2)”, the “apparent KD of MS2 coat protein” value came to 59.3 nM (input ligand: FMN 200 uM), 104 nM under setting [1] and 168 nM (input ligand: none).

Take “UAUCCAUAGAUAGGAUAUUAGUGAACAUGAGGAUCACCCAUGUUUGGCUUGGUUUUAAGCUAAUCUGAGAAGGAUCUUGAUGAA [SameState NG2 #7] (Eterna round: R96, puzzle: Same State NG 2)”: the “apparent KD of MS2 coat protein” value is, setting by setting: (input ligand: FMN 200 uM) 150 nM; under setting [1], 98.5 nM; (input ligand: none) 164 nM.

Regarding “CUGUAUCGCGGAGGAUAUGGGCUGAGACCAGGGCAACCCUGGUCAACAUGAGGAUCACCCAUGUCCCAGAAGGCCGCAAUGCUA [Esatanla] (Eterna round: R96, puzzle: Same State NG 2)”, the “apparent KD of MS2 coat protein” value was 34.7 nM (input ligand: FMN 200 uM), 128 nM under setting [1] and 137 nM (input ligand: none).

Regarding “UUACUCAUGUAAGGAUAUGCAGCCGUUUCGGCUGCAGAAGGUACUAUAAUACAUGAGGAUCACCCAUGUCUCUAUAAUUUAGUG [JL SSNG1 1.30] (Eterna round: R96, puzzle: Same State NG 1)”, the “apparent KD of MS2 coat protein” value by setting is: (input ligand: FMN 200 uM) 102 nM; under setting [1], 38.6 nM; (input ligand: none) 49.7 nM.

Turning to “ACAUUUAGCUCGUGCACAUGAGGAUCACCCAUGUUCGGUUCACAGGAUAUCUAGUCAAACGGAUUGGAGAAGGGUGGCAGGAGC [Gelegees] (Eterna round: R96, puzzle: Same State NG 3)”, the “apparent KD of MS2 coat protein” value is 35.7 nM (input ligand: FMN 200 uM), 128 nM under setting [1] and 215 nM (input ligand: none).

As to “CGUAGGUAGCUGGAGGAUAUUCGAGUGGUAACAUGAGGAUCACCCAUGUGGAGUUAUUUACAUGAGGAGAAGGCUAGCUGCCUGC [JL-ss2-3.16 JL mod] (puzzle: Same State 2)”, the “apparent KD of MS2 coat protein” value came to 14.3 nM under setting [2], 107 nM under setting [3] and 136 nM under setting [4].

Regarding “GAGAAGAGGGACAAGGAUAUGUCAGGAGAGACAUGAGGAUCACCCAUGUAGAGGUUGGAGGAGAGACAGAAGGUGUAGGGAGCGA [JR_SS2_Sub012] (puzzle: Same State 2)”, the “apparent KD of MS2 coat protein” value under setting [2] came out at 50.1 nM, the “apparent KD of MS2 coat protein” value under setting [3] turned out to be 57.2 nM and the “apparent KD of MS2 coat protein” value under setting [4] was 98 nM.

With “UCUUGGUUUUUGCUCGUUUUUUGUGUUGAACAUGAGGAUCACCCAUGUAUUGUACGGUCCAGUUUAGUGGUAGUCCG [JMF 70] (puzzle: Sensor for hsa-mir-208a)”, the “apparent KD of MS2 coat protein” value under setting [2] amounted to 34.6 nM, the “apparent KD of MS2 coat protein” value under setting [3] is 21.5 nM and the “apparent KD of MS2 coat protein” value under setting [4] amounted to 36.4 nM.

On to “UUUACAUUACGAGGAUAUCAAUUAUUUCAUGUUUGAGAAGGCGUUUUUUUUAUUACCUUACAUGAGGAUCACCCAUGUUUCAUU [JR_SSNG1_Sub042] (Eterna round: R96, puzzle: Same State NG 1)”, for which the “apparent KD of MS2 coat protein” value by setting is: (input ligand: FMN 200 uM) 19.4 nM; under setting [1], 18.4 nM; (input ligand: none) 25.5 nM.

On to “UGAACCUUCACAGGAUAUCAUGCGAAAAUUGCGUGAGAAGGGUGGAUGUGGCGUUCAAAGAUGCACAUGAGGAUCACCCAUGUA [SameState NG1 #49] (Eterna round: R96, puzzle: Same State NG 1)”, for which the “apparent KD of MS2 coat protein” value stood at 162 nM (input ligand: FMN 200 uM), 113 nM under setting [1] and 191 nM (input ligand: none).

As for “CUAUCUACAGGUUGCAGUGCUCGUCUUAUACAUGAGGAUCACCCAUGUUAUAGCCCGGUGCUUGCGCUGGGCUGACC [JL ViennaUCT Tearor mod 1] (puzzle: Sensor for hsa-mir-208a)”, the “apparent KD of MS2 coat protein” value is, setting by setting: under setting [2], 33.7 nM; under setting [3], 15.6 nM; under setting [4], 33.6 nM.

With “AUAAUAAUAACUGAGGAUAUGUUGAUAAAGACAUGAGGAUCACCCAUGUGAAAUAAAAUAAUAAUACAGAAGGCAGAAUAAUAAA [JMF's solution 1] (puzzle: Same State 2)”, the “apparent KD of MS2 coat protein” value was determined as 23 nM under setting [2], 29.7 nM under setting [3] and 25.7 nM under setting [4].

In the case of “CUAAAACAUGAGGAUCACCCAUGUCAACAAAGUCGAGGAUAUGGGCAAAUAAAAUAAGAACCAGAAGGCGAAUAAG [salish99_SS1_r3_013] (puzzle: Same State 1)”, the “apparent KD of MS2 coat protein” value is 81.9 nM under setting [2], 274 nM under setting [3] and 543 nM under setting [4].

Regarding “GUGCAACCGUGUGAGGAUAUCGGUGGUAAAACAUGAGGAUCACCCAUGUCCGAAGCUCGGAUCUCCGAGAAGGCGCACAGUUGCA [Same State 2 - Mod of Erisin v.2] (puzzle: Same State 2)”, the “apparent KD of MS2 coat protein” value under setting [2] was determined as 27.8 nM, the “apparent KD of MS2 coat protein” value under setting [3] turned out to be 290 nM and the “apparent KD of MS2 coat protein” value under setting [4] is 470 nM.

Take “GUGGUGGGUUGAGGAUAUUGGUUGUUGUUGUCCCACAUGAGGAUCACCCAUGUGGGUUGUGGUUUUGAGAAGGUUGGUUGCUGG [salish99_SSNG2_r04_051] (Eterna round: R96, puzzle: Same State NG 2)”: under setting [1], the “apparent KD of MS2 coat protein” value amounted to 14.4 nM.

As for “AGCCUGGAAGUCCAGGCAAAACAUGAGGAUCACCCAUGUACAUAGGAUAUCGUCUGAAAAGCAGACGAGAAGGGUGACCGAACU [Titedi] (Eterna round: R96, puzzle: Same State NG 3)”, the “apparent KD of MS2 coat protein” value was 687 nM (input ligand: FMN 200 uM), 96.8 nM under setting [1] and 192 nM (input ligand: none).

“GGGCCAGCUUGUGCUGGGCCUUCGCAUGCACAUGAGGAUCACCCAUGUCGUGUACAUGCUUGGUGCUCGUCUUUAAA [Photon Torp-12] (puzzle: Sensor for hsa-mir-208a)”: the “apparent KD of MS2 coat protein” value runs as follows: under setting [2], 399 nM; under setting [3], 15.7 nM; under setting [4], 266 nM.

These data come from the supplement of paper PMC9170038.
